Measurements published in patent US20100129344A1, “MEDICAL USES AND THERAPIES BASED UPON THE ACTION OF AZUROCIDIN ON IGFBP-1” (priority 2005, published 2010).

B1: IGFBP-1 purified from amniotic fluid: 28 kDa IGF-binding protein purified from human amniotic fluid (protein, UniProt P08833 26-259, looked up)
Insulin-like growth …: APWQCAPCSAEKLALCPPVSASCSEVTRSAGCGCCPMCALPLGAACGVATARCARGLSCRALPGEQQPLHALTRGQGACVQESDASAPHAAEAGSPESPESTEITEEELLDNFHLMAPSEEDHSILWDAISTYDGSKALHVTNIKKWKEPCRIELYRVVESLAKAQETSGEEISKFYLPNCNKNGFYHSRQCETSMDGEAGLCWCVYPWNGKRIPGSPEIRGDPNCQIYFNVQN
B2: azurocidin: protein from granules of human polymorphonuclear leukocytes, SEQ ID NO. 1; identified here as IGFBP-1 specific protease (protein, listed as Homo sapiens)
chain: IVGGRKARPRQFPFLASIQNQGRHFCGGALIHARFVMTAASCFQSQNPGVSTVVLGAYDLRRRERQSRQTFSISSMSENGYDPQQNLNDLMLLQLDREANLTSSVTILPLPLQNATVEAGTRCQVAGWGSQRSGGRLSRFPRFVNVTVTPEDQCRPNNVCTGVLTRRGGICNGDGGTPLVCEGLAHGVASFSLGPCGRGPDFFTRVALFRDWIDGVLNNPGPGPA

Legend:
IGF-II = IGF-II (Homo sapiens, UniProt P01344); conditions: IGFBP-1 purified from amniotic fluid; cited from earlier work
IGF-I = IGF-I (Homo sapiens, UniProt P05019); conditions: IGFBP-1 purified from amniotic fluid; cited from earlier work
[1] = pH increased from 5.5 to 6.5; cited from earlier work
monocyte = conditions: cited from earlier work
IGFBP-1 = target: T1, IGFBP-1 (Homo sapiens, UniProt P08833); assay: Azurocidin-dependent IGFBP-1 protease activity (SDS-PAGE, ECL or silver staining); type: biochemical
T1 construct: purchased Kabi Pharmacia (Sweden), donated
T1 sequence (P08833 26-259): B1 Insulin-like growth …
Description: Recombinant phosphorylated IGFBP-1 was used as substrate and incubations were carried out under neutral conditions for 2 h at 37 C. IGFBP-1 fragments were separated on SDS-PAGE, and detected by ECL as described in the methods. Panel A: Incubations with 0.25 μL eluate (HE) from heparin affinity chromatography (50 μl urine equiv.) in the presence and absence of anti-azurocidin antibody; and 1 μl HE of the loading material (L), and the flow through after affinity chromatography on protein G columns without (G) and with bound anti-chymase (C) or anti-azurocidin (A) antibodies. Panel B: Incubations in the presence and absence of 25 ng anti-azurocidin antibody with increasing volumes of white cell extract from the individual with a specific IGFBP-1 protease in urine compared to the white cell extract pooled from 6 healthy subjects;
Recombinant IGFBP-1 was incubated with the eluate from heparin affinity chromatography (HE) with a ratio of azurocidin:BP-1 of 1:3,500. After the times indicated, proteins were detected by silver staining after SDS-PAGE;
Gels were fixed, dried and analysed with the Fuji PhosphoImage program (Fuji Co., Stockholm, Sweden). Biotinylated IGFBP-1 and its fragments were separated on 14% SDS-PAGE under reducing conditions, transferred to PVDF (Biorad, Sundbyberg, Sweden), incubated with neutravidin-horseradish peroxidase (Pierce Biotechnology Inc, Rochester, Ill.) and detected by ECL (Amersham Biosciences, Uppsala, Sweden). Silver staining of proteins and fragments was performed after denaturing 12% PAGE under reducing conditions (SilverQuest and NuPAGE, Invitrogen, Stockholm, Sweden).
Heparin affinity chromatography was carried out in batches using heparin-agarose gel (Pharmacia). Urine was diluted 1:5 in 10 mM sodium phosphate, with 0.25 M NaCl buffer, pH 7 and incubated with gel for 30 min at 4 C. The gel was transferred to a column and washed with 10 times the gel volume of buffer. Heparin binding proteins were eluted in loading buffer containing 2M NaCl and the eluate was desalted, concentrated using a 10 kDa spin column and stored at −80 C. Concentrated material derived from 700 ml urine were applied to C4 reverse-phase HPLC, in 0.1% TFA on an acetonitrile gradient of 0-100%. Immunoaffinity chromatography was performed using monoclonal anti-azurocidin antibody attached to protein G Sepharose (Sigma-Aldrich, Sweden). In brief, antibody bound gel was incubated with the eluate from heparin affinity chromatography for 2 h at 22 C, and transferred to a Bio-Spin chromatography column (BioRad). The flow-through was collected for analysis of protease activity. As controls, an additional column was prepared with a monoclonal antibody against human mast cell chymase and a second column with no bound antibody.

Chain of IGF-II (P01344 25-91): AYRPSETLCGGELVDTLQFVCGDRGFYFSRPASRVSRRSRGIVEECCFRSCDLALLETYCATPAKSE
Chain of IGF-I (P05019 49-118): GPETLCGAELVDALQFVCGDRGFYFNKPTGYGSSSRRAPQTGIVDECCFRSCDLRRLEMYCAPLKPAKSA

Row | Molecule | association constant for IGF-II (IGF-II) [L/mol] | association constant for IGF-I (IGF-I) | decrease of bactericidal activity [1] | concentration level required for monocyte chemotaxis (monocyte) | pH above which action on IGFBP-1 is greater (IGFBP-1) | effect on IGFBP-1 (proteolysis) after HPLC-passage (IGFBP-1; after reverse-phase HPLC) | time until proteolysis of phosphorylated IGFBP-1 is seen (IGFBP-1; protease:substrate molar ratio 1:3,500) | concentration at which proteolytic effect on IGFBP-1 is noticeable (IGFBP-1; purified preparation)
1 | B1 | ~3.2e+09 | approximately 6.6×10^9 L/mol |  |  |  |  |  | 
2 | B2 |  |  | at least 50% | micromolar | > 6 | without effect | within minutes | nanomolar
